Measurements from CN110218251A (FUZHOU MAIXIN BIOTECHNOLOGY DEV CO LTD, dated 2019).

Biological target: T1, MSH2蛋白 (endogenous, in HCT8 and Biu-87 cell lysates and in human tissue sections) (human, UniProt P43246 2-934)
T1 construct: Endogenous protein; also called MutS homolog 2
Experiment: IHC on tonsil tissue

T1 sequence (P43246 2-934 limits assumed): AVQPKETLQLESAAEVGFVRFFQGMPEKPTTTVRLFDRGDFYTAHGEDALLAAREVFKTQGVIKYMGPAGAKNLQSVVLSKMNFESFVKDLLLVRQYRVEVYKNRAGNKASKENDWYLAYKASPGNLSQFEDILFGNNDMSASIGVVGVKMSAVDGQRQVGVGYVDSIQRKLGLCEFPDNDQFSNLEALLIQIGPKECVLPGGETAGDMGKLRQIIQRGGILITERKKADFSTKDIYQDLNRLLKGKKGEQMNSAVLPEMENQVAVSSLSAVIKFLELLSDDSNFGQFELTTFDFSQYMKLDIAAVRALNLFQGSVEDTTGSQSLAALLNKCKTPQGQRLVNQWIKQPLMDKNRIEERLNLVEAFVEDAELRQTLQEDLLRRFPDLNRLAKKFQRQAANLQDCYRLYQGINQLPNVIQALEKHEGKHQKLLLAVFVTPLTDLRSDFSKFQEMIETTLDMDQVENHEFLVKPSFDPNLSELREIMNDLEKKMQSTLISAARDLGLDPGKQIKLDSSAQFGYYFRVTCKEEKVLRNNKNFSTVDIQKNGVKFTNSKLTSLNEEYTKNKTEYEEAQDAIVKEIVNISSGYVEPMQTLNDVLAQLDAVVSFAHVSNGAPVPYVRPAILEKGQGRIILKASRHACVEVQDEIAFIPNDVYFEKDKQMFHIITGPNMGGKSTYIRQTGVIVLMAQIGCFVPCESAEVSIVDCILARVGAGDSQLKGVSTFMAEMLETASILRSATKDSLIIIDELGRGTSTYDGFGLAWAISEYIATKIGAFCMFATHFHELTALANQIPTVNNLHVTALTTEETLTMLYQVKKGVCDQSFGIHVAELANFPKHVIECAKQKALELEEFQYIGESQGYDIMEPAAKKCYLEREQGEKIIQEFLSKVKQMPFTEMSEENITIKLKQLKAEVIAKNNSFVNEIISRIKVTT

binding result: binds
B1: 抗MSH2蛋白单克隆抗体(1B11-14-16) (antibody, V domains shown)
VH: QVQLQQSGAELMKPGASVRISCKATGYTFTRYWIEWVKERPGHGLEWIGEILPGSGGTNYNEKFKGKATFTADTSSNTVHMQLNSLTSEDSAVYYCVKREGPYWGRGTLVTVSA
VL: DVLMTQTPLSLPVSLGDQASISCRSSQSIVYRTGSTFLEWYLQKPGQSPKLLIYKVSNRFSGVPDRFSGSGSGTDFTLKISRVEAEDLGVYYCFQGSHLPYTFGGGTKLEIK
notes: also called MSH2(1B11-14-16)单克隆抗体; 1B11-14-16的MSH2
